US20250269047A1 (MABWELL SHANGHAI BIOSCIENCE, published 2025)

T1: recombinant human B7-H3-his extracellular domain protein (UniProtKB-Q5ZPR3, 1 aa-461 aa) (human, UniProt Q5ZPR3 29-461)
T1 construct: range 1-461; The printed range 1-461 starts at residue 1 and so includes the signal peptide; also called Human B7-H3 ECD; recombinant human B7-H3-his protein; not shown: C-terminal his tag
T1 sequence (looked up): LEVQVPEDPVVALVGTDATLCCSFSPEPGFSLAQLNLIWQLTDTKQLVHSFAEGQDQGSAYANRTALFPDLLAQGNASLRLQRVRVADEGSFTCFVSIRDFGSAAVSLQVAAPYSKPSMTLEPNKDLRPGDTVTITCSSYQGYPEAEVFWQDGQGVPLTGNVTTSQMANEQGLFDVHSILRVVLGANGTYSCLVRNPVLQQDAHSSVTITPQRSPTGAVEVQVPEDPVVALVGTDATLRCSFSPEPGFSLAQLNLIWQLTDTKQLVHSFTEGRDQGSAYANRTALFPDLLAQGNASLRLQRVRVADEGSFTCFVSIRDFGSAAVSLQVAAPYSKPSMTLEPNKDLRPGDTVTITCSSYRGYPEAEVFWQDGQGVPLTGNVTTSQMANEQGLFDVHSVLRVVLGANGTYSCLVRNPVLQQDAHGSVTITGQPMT

B1: hz17A3-8 (antibody, human IgG1, kappa, V domains shown)
VH: EVQLVQSGAEVKKPGASVKVSCKASGYTFTDYALHWVRQAPGQGLEWMGLINTYSSNTNYNQKFKDRVTMTRDTSISTAYMELSRLRSEDTAVYYCARGITAVVGTRYYAMDYWGQGTLVTVSS
VL: EIVLTQSPGTLSLSPGERATLSCRASQSISNNLHWYQQKPGQAPRLLIYYTSQNISGIPDRFSGSGSGTDFTLTISRLEPEDFAVYFCQQSYSWPLTFGGGTKVEIKR
notes: hz17A3_VH3 + hz17A3_VL4; human IgG1, kappa
B2: hz17A3-19 (antibody, human IgG1, kappa, V domains shown)
VH: EVQLVQSGAEVKKPGASVKVSCKASGYTFTDYALHWVRQAPGQGLEWMGLINTYSSSTNYNQKFKDRVTMTRDTSISTAYMELSRLRSEDTAVYYCARGITAVVGTRYYAMDYWGQGTLVTVSS
VL: EIVLTQSPGTLSLSPGERATLSCRASQSISSNLHWYQQKPGQAPRLLIKYTSQSISGIPDRFSGSGSGTDFTLTISRLEPEDFAVYYCQQSYSWPLTFGGGTKVEIKR
notes: hz17A3_VH5 + hz17A3_VL7; human IgG1, kappa
B3: hz17A3-18 (antibody, human IgG1, kappa, V domains shown)
VH: EVQLVQSGAEVKKPGASVKVSCKASGYTFTDYALHWVRQAPGQGLEWMGLISTYSSNTNYNQKFKDRVTMTRDTSISTAYMELSRLRSEDTAVYYCARGITAVVGTRYYAMDYWGQGTLVTVSS
VL: EIVLTQSPGTLSLSPGERATLSCRASQSISSNLHWYQQKPGQAPRLLIKYTSQSISGIPDRFSGSGSGTDFTLTISRLEPEDFAVYYCQQSYSWPLTFGGGTKVEIKR
notes: hz17A3_VH4 + hz17A3_VL7; human IgG1, kappa
B4: hz17A3-15 (antibody, human IgG1, kappa, V domains shown)
VH: EVQLVQSGAEVKKPGASVKVSCKASGYTFTDYALHWVRQAPGQGLEWMGLISTYSSNTNYNQKFKDRVTMTRDTSISTAYMELSRLRSEDTAVYYCARGITAVVGTRYYAMDYWGQGTLVTVSS
VL: EIVLTQSPGTLSLSPGERATLSCRASQSISNNLHWYQQKPGQAPRLLIKYTSQSISGIPDRFSGSGSGTDFTLTISRLEPEDFAVYYCQQSYSWPLTFGGGTKVEIKR
notes: hz17A3_VH4 + hz17A3_VL6; human IgG1, kappa
B5: hz17A3-12 (antibody, human IgG1, kappa, V domains shown)
VH: EVQLVQSGAEVKKPGASVKVSCKASGYTFTDYALHWVRQAPGQGLEWMGLISTYSSNTNYNQKFKDRVTMTRDTSISTAYMELSRLRSEDTAVYYCARGITAVVGTRYYAMDYWGQGTLVTVSS
VL: EIVLTQSPGTLSLSPGERATLSCRASQSISSNLHWYQQKPGQAPRLLIKYTSQNISGIPDRFSGSGSGTDFTLTISRLEPEDFAVYYCQQSYSWPLTFGGGTKVEIKR
notes: hz17A3_VH4 + hz17A3_VL5; human IgG1, kappa
B6: hz17A3-10 (antibody, human IgG1, kappa, V domains shown)
VH: EVQLVQSGAEVKKPGASVKVSCKASGYTFTDYALHWVRQAPGQGLEWMGLINTYSSSTNYNQKFKDRVTMTRDTSISTAYMELSRLRSEDTAVYYCARGITAVVGTRYYAMDYWGQGTLVTVSS
VL: EIVLTQSPGTLSLSPGERATLSCRASQSISNNLHWYQQKPGQAPRLLIYYTSQNISGIPDRFSGSGSGTDFTLTISRLEPEDFAVYFCQQSYSWPLTFGGGTKVEIKR
notes: hz17A3_VH5 + hz17A3_VL4; human IgG1, kappa
B7: hz17A3-17 (antibody, human IgG1, kappa, V domains shown)
VH: EVQLVQSGAEVKKPGASVKVSCKASGYTFTDYALHWVRQAPGQGLEWMGLINTYSSNTNYNQKFKDRVTMTRDTSISTAYMELSRLRSEDTAVYYCARGITAVVGTRYYAMDYWGQGTLVTVSS
VL: EIVLTQSPGTLSLSPGERATLSCRASQSISSNLHWYQQKPGQAPRLLIKYTSQSISGIPDRFSGSGSGTDFTLTISRLEPEDFAVYYCQQSYSWPLTFGGGTKVEIKR
notes: hz17A3_VH3 + hz17A3_VL7; human IgG1, kappa
B8: hz17A3-9 (antibody, human IgG1, kappa, V domains shown)
VH: EVQLVQSGAEVKKPGASVKVSCKASGYTFTDYALHWVRQAPGQGLEWMGLISTYSSNTNYNQKFKDRVTMTRDTSISTAYMELSRLRSEDTAVYYCARGITAVVGTRYYAMDYWGQGTLVTVSS
VL: EIVLTQSPGTLSLSPGERATLSCRASQSISNNLHWYQQKPGQAPRLLIYYTSQNISGIPDRFSGSGSGTDFTLTISRLEPEDFAVYFCQQSYSWPLTFGGGTKVEIKR
notes: hz17A3_VH4 + hz17A3_VL4; human IgG1, kappa
B9: hz17A3-13 (antibody, human IgG1, kappa, V domains shown)
VH: EVQLVQSGAEVKKPGASVKVSCKASGYTFTDYALHWVRQAPGQGLEWMGLINTYSSSTNYNQKFKDRVTMTRDTSISTAYMELSRLRSEDTAVYYCARGITAVVGTRYYAMDYWGQGTLVTVSS
VL: EIVLTQSPGTLSLSPGERATLSCRASQSISSNLHWYQQKPGQAPRLLIKYTSQNISGIPDRFSGSGSGTDFTLTISRLEPEDFAVYYCQQSYSWPLTFGGGTKVEIKR
notes: hz17A3_VH5 + hz17A3_VL5; human IgG1, kappa
B10: hz17A3-16 (antibody, human IgG1, kappa, V domains shown)
VH: EVQLVQSGAEVKKPGASVKVSCKASGYTFTDYALHWVRQAPGQGLEWMGLINTYSSSTNYNQKFKDRVTMTRDTSISTAYMELSRLRSEDTAVYYCARGITAVVGTRYYAMDYWGQGTLVTVSS
VL: EIVLTQSPGTLSLSPGERATLSCRASQSISNNLHWYQQKPGQAPRLLIKYTSQSISGIPDRFSGSGSGTDFTLTISRLEPEDFAVYYCQQSYSWPLTFGGGTKVEIKR
notes: hz17A3_VH5 + hz17A3_VL6; human IgG1, kappa
B11: hz17A3-11 (antibody, human IgG1, kappa, V domains shown)
VH: EVQLVQSGAEVKKPGASVKVSCKASGYTFTDYALHWVRQAPGQGLEWMGLINTYSSNTNYNQKFKDRVTMTRDTSISTAYMELSRLRSEDTAVYYCARGITAVVGTRYYAMDYWGQGTLVTVSS
VL: EIVLTQSPGTLSLSPGERATLSCRASQSISSNLHWYQQKPGQAPRLLIKYTSQNISGIPDRFSGSGSGTDFTLTISRLEPEDFAVYYCQQSYSWPLTFGGGTKVEIKR
notes: hz17A3_VH3 + hz17A3_VL5; human IgG1, kappa
B12: hz9B11-1 (antibody, human IgG1, kappa)
heavy: not shown
light: EIVLTQSPGTLSLSPGERATLSCRASQSINNNLHWYQQKPGQAPRLLIYYASQSISGIPDRFSGSGSGTDFTLTISRLEPEDFAVYYCQQSHSWPYTFGQGTKLEIKRTVAAPSVFIFPPSDEQLKSGTASVVCLLNNFYPREAKVQWKVDNALQSGNSQESVTEQDSKDSTYSLSSTLTLSKADYEKHKVYACEVTHQGLSSPVTKSFNRGEC
notes: hz9B11_VH1 + hz9B11_VL1; human IgG1, kappa
B13: hz9B11-7 (antibody, human IgG1, kappa)
heavy: not shown
light: EIVLTQSPGTLSLSPGERATLSCRASQSINNNLHWYQQKPGQAPRLLIYYASQSISGIPDRFSGSGSGTDFTLTISRLEPEDFAVYFCQQSHSWPYTFGQGTKLEIKRTVAAPSVFIFPPSDEQLKSGTASVVCLLNNFYPREAKVQWKVDNALQSGNSQESVTEQDSKDSTYSLSSTLTLSKADYEKHKVYACEVTHQGLSSPVTKSFNRGEC
notes: hz9B11_VH1 + hz9B11_VL4; human IgG1, kappa
B14: hz9B11-8 (antibody, human IgG1, kappa)
heavy: not shown
light: EIVLTQSPGTLSLSPGERATLSCRASQSINNNLHWYQQKPGQAPRLLIYYASQSISGIPDRFSGSGSGTDFTLTISRLEPEDFAVYFCQQSHSWPYTFGQGTKLEIKRTVAAPSVFIFPPSDEQLKSGTASVVCLLNNFYPREAKVQWKVDNALQSGNSQESVTEQDSKDSTYSLSSTLTLSKADYEKHKVYACEVTHQGLSSPVTKSFNRGEC
notes: hz9B11_VH2 + hz9B11_VL4; human IgG1, kappa
B15: hz9B11-2 (antibody, human IgG1, kappa)
heavy: not shown
light: EIVLTQSPGTLSLSPGERATLSCRASQSINNNLHWYQQKPGQAPRLLIYYASQSISGIPDRFSGSGSGTDFTLTISRLEPEDFAVYYCQQSHSWPYTFGQGTKLEIKRTVAAPSVFIFPPSDEQLKSGTASVVCLLNNFYPREAKVQWKVDNALQSGNSQESVTEQDSKDSTYSLSSTLTLSKADYEKHKVYACEVTHQGLSSPVTKSFNRGEC
notes: hz9B11_VH2 + hz9B11_VL1; human IgG1, kappa
B16: hz9B11-5 (antibody, human IgG1, kappa)
heavy: not shown
light: EIVLTQSPGTLSLSPGERATLSCRASQSINNNLHWYQQKPGQAPRLLIKYASQSISGIPDRFSGSGSGTDFTLTISRLEPEDFAVYYCQQSHSWPYTFGQGTKLEIKRTVAAPSVFIFPPSDEQLKSGTASVVCLLNNFYPREAKVQWKVDNALQSGNSQESVTEQDSKDSTYSLSSTLTLSKADYEKHKVYACEVTHQGLSSPVTKSFNRGEC
notes: hz9B11_VH1 + hz9B11_VL3; human IgG1, kappa

biological target: T1, recombinant human B7-H3-his …; assay: BLI (Octet QKe), antibody on AHC biosensor, B7-H3-his 60 nM in solution
Description: According to the mutation designs, site-directed mutagenesis was performed in the plasmids expressing the humanized light chains and heavy chains respectively using StarMut gene Site-directed Mutagenesis Kit (Cat.: T111-01, GenStar). The mutated plasmids were transformed into E. coli cells for expansion, and plasmids expressing the humanized and mutated light and heavy chains based on the antibodies 9B11, 10B4, and 17A3 were obtained. […] 5-6 days after cell transfection, culture supernatants were purified through ProA affinity chromatography column to obtain different humanized antibodies. Affinities of the antibodies were determined by an assay including capturing Fc fragments of the antibodies with anti-human IgG Fc capture (AHC) biosensors using Octet QKe system instrument from Fortebio. For the assay, each of the humanized antibodies and the chimeric antibodies based on the antibodies 9B11, 10B4, and 17A3 was diluted to 4 μg/ml in PBS, and was allowed to flow through the surface of an AHC biosensor (Cat.: 18-0015, PALL) for 300 s. Recombinant human B7-H3-his protein (Accession No.: UniProtKB-Q5ZPR3, 1 aa-461 aa) was used as a mobile phase, and its concentration was 60 nM. The association time was 100 s and the dissociation time was 300 s. When the assay was finished, data from which the response values of blank control had been deducted were fitted to a 1:1 Langmuir binding model using software, and then kinetic constants for antigen-antibody binding were calculated. The light and heavy chain combinations and the affinity constant KD values of the humanized and the mutant antibodies based on the antibodies 9B11, 10B4, and 17A3 are shown in Tables 6-8 respectively.

Point of comparison: B14, Kd 4.51 nM. Against it:
- B1 — 9.8-fold lower, 0.462 nM
- B2 — 11-fold lower, 0.411 nM
- B3 — 26-fold lower, 0.172 nM
- B4 — 12-fold lower, 0.371 nM
- B5 — 7.9-fold lower, 0.573 nM
- B6 — 11-fold lower, 0.401 nM
- B7 — 140-fold lower, 0.0328 nM
- B8 — 10-fold lower, 0.431 nM
- B9 — 6.5-fold lower, 0.699 nM
- B10 — 15-fold lower, 0.299 nM
- B11 — 15-fold lower, 0.299 nM
- B12 — within 1.5-fold, 4.52 nM
- B13 — within 1.5-fold, 3.07 nM
- B15 — within 1.5-fold, 6.28 nM
- B16 — 37-fold lower, 0.121 nM
